Results published in patent US20140087995A1 (published 2014).
Numbered stars: 1 amine (or outer) side, 2 acyl side, 3 side chain; on linkers, the order of the positions; unused ones are H or OH. Bridge positions count the residues as written; N and C are the ends. Side chains are listed from the residue outwards. Ends that are not written are not given here. * marks the point of attachment. C20 diacid = O=C(O)CCCCCCCCCCCCCCCCCCC(=O)*; γGlu = O=C(O)[C@H](CCC(=O)[*:2])N[*:1]

T1: human calcitonin receptor (human, UniProt P30988 25-474)
T1 construct: whole, on cells; also called hCTR; hCT
T1 sequence (looked up): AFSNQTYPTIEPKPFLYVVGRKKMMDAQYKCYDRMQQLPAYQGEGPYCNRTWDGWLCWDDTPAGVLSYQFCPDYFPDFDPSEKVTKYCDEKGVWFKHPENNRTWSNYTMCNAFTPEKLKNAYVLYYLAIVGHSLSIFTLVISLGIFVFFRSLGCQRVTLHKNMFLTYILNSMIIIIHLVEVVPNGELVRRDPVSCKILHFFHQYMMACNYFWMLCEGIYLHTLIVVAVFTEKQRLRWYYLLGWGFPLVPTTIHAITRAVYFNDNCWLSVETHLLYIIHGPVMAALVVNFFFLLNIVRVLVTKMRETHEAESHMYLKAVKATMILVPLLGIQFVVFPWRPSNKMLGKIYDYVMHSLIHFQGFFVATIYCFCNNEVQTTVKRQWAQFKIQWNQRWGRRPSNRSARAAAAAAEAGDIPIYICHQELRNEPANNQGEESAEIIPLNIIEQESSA

B1: N^ε1-[(4S)-4-carboxy-4-(19-carboxynonadecanoylamino)butanoyl]-[Arg17,Pro21,Pro27,Glu35]-h-amylin (peptide)
peptide: K([γGlu-C20 diacid])CNTATCATQRLANFLRHSSPNFGAIPSSTNVGSETY-NH2
modifications: disulfide 2-7; N-terminus assumed
SMILES: CC[C@H](C)[C@H](NC(=O)[C@H](C)NC(=O)CNC(=O)[C@H](Cc1ccccc1)NC(=O)[C@H](CC(N)=O)NC(=O)[C@@H]1CCCN1C(=O)[C@H](CO)NC(=O)[C@H](CO)NC(=O)[C@H](Cc1c[nH]cn1)NC(=O)[C@H](CCCNC(=N)N)NC(=O)[C@H](CC(C)C)NC(=O)[C@H](Cc1ccccc1)NC(=O)[C@H](CC(N)=O)NC(=O)[C@H](C)NC(=O)[C@H](CC(C)C)NC(=O)[C@H](CCCNC(=N)N)NC(=O)[C@H](CCC(N)=O)NC(=O)[C@@H](NC(=O)[C@H](C)NC(=O)[C@@H]1CSSC[C@H](NC(=O)[C@@H](N)CCCCNC(=O)CC[C@H](NC(=O)CCCCCCCCCCCCCCCCCCC(=O)O)C(=O)O)C(=O)N[C@@H](CC(N)=O)C(=O)N[C@@H]([C@@H](C)O)C(=O)N[C@@H](C)C(=O)N[C@@H]([C@@H](C)O)C(=O)N1)[C@@H](C)O)C(=O)N1CCC[C@H]1C(=O)N[C@@H](CO)C(=O)N[C@@H](CO)C(=O)N[C@H](C(=O)N[C@@H](CC(N)=O)C(=O)N[C@H](C(=O)NCC(=O)N[C@@H](CO)C(=O)N[C@@H](CCC(=O)O)C(=O)N[C@H](C(=O)N[C@@H](Cc1ccc(O)cc1)C(N)=O)[C@@H](C)O)C(C)C)[C@@H](C)O
notes: also called compound 27
B2: N^ε1-[(4S)-4-carboxy-4-(19-carboxynonadecanoylamino)butanoyl]-[Arg17,Pro21,Pro27,His35]-h-amylin (peptide)
peptide: K([γGlu-C20 diacid])CNTATCATQRLANFLRHSSPNFGAIPSSTNVGSHTY-NH2
modifications: disulfide 2-7; N-terminus assumed
SMILES: CC[C@H](C)[C@H](NC(=O)[C@H](C)NC(=O)CNC(=O)[C@H](Cc1ccccc1)NC(=O)[C@H](CC(N)=O)NC(=O)[C@@H]1CCCN1C(=O)[C@H](CO)NC(=O)[C@H](CO)NC(=O)[C@H](Cc1c[nH]cn1)NC(=O)[C@H](CCCNC(=N)N)NC(=O)[C@H](CC(C)C)NC(=O)[C@H](Cc1ccccc1)NC(=O)[C@H](CC(N)=O)NC(=O)[C@H](C)NC(=O)[C@H](CC(C)C)NC(=O)[C@H](CCCNC(=N)N)NC(=O)[C@H](CCC(N)=O)NC(=O)[C@@H](NC(=O)[C@H](C)NC(=O)[C@@H]1CSSC[C@H](NC(=O)[C@@H](N)CCCCNC(=O)CC[C@H](NC(=O)CCCCCCCCCCCCCCCCCCC(=O)O)C(=O)O)C(=O)N[C@@H](CC(N)=O)C(=O)N[C@@H]([C@@H](C)O)C(=O)N[C@@H](C)C(=O)N[C@@H]([C@@H](C)O)C(=O)N1)[C@@H](C)O)C(=O)N1CCC[C@H]1C(=O)N[C@@H](CO)C(=O)N[C@@H](CO)C(=O)N[C@H](C(=O)N[C@@H](CC(N)=O)C(=O)N[C@H](C(=O)NCC(=O)N[C@@H](CO)C(=O)N[C@@H](Cc1c[nH]cn1)C(=O)N[C@H](C(=O)N[C@@H](Cc1ccc(O)cc1)C(N)=O)[C@@H](C)O)C(C)C)[C@@H](C)O
notes: also called compound 60
B3: N^ε1-[(4S)-4-carboxy-4-(19-carboxynonadecanoylamino)butanoyl]-[Arg17,Pro21,Pro27,Lys35]-h-amylin (peptide)
peptide: K([γGlu-C20 diacid])CNTATCATQRLANFLRHSSPNFGAIPSSTNVGSKTY-NH2
modifications: disulfide 2-7; N-terminus assumed
SMILES: CC[C@H](C)[C@H](NC(=O)[C@H](C)NC(=O)CNC(=O)[C@H](Cc1ccccc1)NC(=O)[C@H](CC(N)=O)NC(=O)[C@@H]1CCCN1C(=O)[C@H](CO)NC(=O)[C@H](CO)NC(=O)[C@H](Cc1c[nH]cn1)NC(=O)[C@H](CCCNC(=N)N)NC(=O)[C@H](CC(C)C)NC(=O)[C@H](Cc1ccccc1)NC(=O)[C@H](CC(N)=O)NC(=O)[C@H](C)NC(=O)[C@H](CC(C)C)NC(=O)[C@H](CCCNC(=N)N)NC(=O)[C@H](CCC(N)=O)NC(=O)[C@@H](NC(=O)[C@H](C)NC(=O)[C@@H]1CSSC[C@H](NC(=O)[C@@H](N)CCCCNC(=O)CC[C@H](NC(=O)CCCCCCCCCCCCCCCCCCC(=O)O)C(=O)O)C(=O)N[C@@H](CC(N)=O)C(=O)N[C@@H]([C@@H](C)O)C(=O)N[C@@H](C)C(=O)N[C@@H]([C@@H](C)O)C(=O)N1)[C@@H](C)O)C(=O)N1CCC[C@H]1C(=O)N[C@@H](CO)C(=O)N[C@@H](CO)C(=O)N[C@H](C(=O)N[C@@H](CC(N)=O)C(=O)N[C@H](C(=O)NCC(=O)N[C@@H](CO)C(=O)N[C@@H](CCCCN)C(=O)N[C@H](C(=O)N[C@@H](Cc1ccc(O)cc1)C(N)=O)[C@@H](C)O)C(C)C)[C@@H](C)O
notes: also called compound 35
B4: N^ε1-[(4S)-4-carboxy-4-(19-carboxynonadecanoylamino)butanoyl]-[His14,Arg17,Pro21,Pro27,Pro31]-h-amylin (peptide)
peptide: K([γGlu-C20 diacid])CNTATCATQRLAHFLRHSSPNFGAIPSSTPVGSNTY-NH2
modifications: disulfide 2-7; N-terminus assumed
SMILES: CC[C@H](C)[C@H](NC(=O)[C@H](C)NC(=O)CNC(=O)[C@H](Cc1ccccc1)NC(=O)[C@H](CC(N)=O)NC(=O)[C@@H]1CCCN1C(=O)[C@H](CO)NC(=O)[C@H](CO)NC(=O)[C@H](Cc1c[nH]cn1)NC(=O)[C@H](CCCNC(=N)N)NC(=O)[C@H](CC(C)C)NC(=O)[C@H](Cc1ccccc1)NC(=O)[C@H](Cc1c[nH]cn1)NC(=O)[C@H](C)NC(=O)[C@H](CC(C)C)NC(=O)[C@H](CCCNC(=N)N)NC(=O)[C@H](CCC(N)=O)NC(=O)[C@@H](NC(=O)[C@H](C)NC(=O)[C@@H]1CSSC[C@H](NC(=O)[C@@H](N)CCCCNC(=O)CC[C@H](NC(=O)CCCCCCCCCCCCCCCCCCC(=O)O)C(=O)O)C(=O)N[C@@H](CC(N)=O)C(=O)N[C@@H]([C@@H](C)O)C(=O)N[C@@H](C)C(=O)N[C@@H]([C@@H](C)O)C(=O)N1)[C@@H](C)O)C(=O)N1CCC[C@H]1C(=O)N[C@@H](CO)C(=O)N[C@@H](CO)C(=O)N[C@H](C(=O)N1CCC[C@H]1C(=O)N[C@H](C(=O)NCC(=O)N[C@@H](CO)C(=O)N[C@@H](CC(N)=O)C(=O)N[C@H](C(=O)N[C@@H](Cc1ccc(O)cc1)C(N)=O)[C@@H](C)O)C(C)C)[C@@H](C)O
notes: also called compound 62
B5: N^ε1-[(4S)-4-carboxy-4-(19-carboxynonadecanoylamino)butanoyl]-[His14,Arg17,Pro21,Pro27,His35]-h-amylin (peptide)
peptide: K([γGlu-C20 diacid])CNTATCATQRLAHFLRHSSPNFGAIPSSTNVGSHTY-NH2
modifications: disulfide 2-7; N-terminus assumed
SMILES: CC[C@H](C)[C@H](NC(=O)[C@H](C)NC(=O)CNC(=O)[C@H](Cc1ccccc1)NC(=O)[C@H](CC(N)=O)NC(=O)[C@@H]1CCCN1C(=O)[C@H](CO)NC(=O)[C@H](CO)NC(=O)[C@H](Cc1c[nH]cn1)NC(=O)[C@H](CCCNC(=N)N)NC(=O)[C@H](CC(C)C)NC(=O)[C@H](Cc1ccccc1)NC(=O)[C@H](Cc1c[nH]cn1)NC(=O)[C@H](C)NC(=O)[C@H](CC(C)C)NC(=O)[C@H](CCCNC(=N)N)NC(=O)[C@H](CCC(N)=O)NC(=O)[C@@H](NC(=O)[C@H](C)NC(=O)[C@@H]1CSSC[C@H](NC(=O)[C@@H](N)CCCCNC(=O)CC[C@H](NC(=O)CCCCCCCCCCCCCCCCCCC(=O)O)C(=O)O)C(=O)N[C@@H](CC(N)=O)C(=O)N[C@@H]([C@@H](C)O)C(=O)N[C@@H](C)C(=O)N[C@@H]([C@@H](C)O)C(=O)N1)[C@@H](C)O)C(=O)N1CCC[C@H]1C(=O)N[C@@H](CO)C(=O)N[C@@H](CO)C(=O)N[C@H](C(=O)N[C@@H](CC(N)=O)C(=O)N[C@H](C(=O)NCC(=O)N[C@@H](CO)C(=O)N[C@@H](Cc1c[nH]cn1)C(=O)N[C@H](C(=O)N[C@@H](Cc1ccc(O)cc1)C(N)=O)[C@@H](C)O)C(C)C)[C@@H](C)O
notes: also called compound 66
B6: N^ε1-[(4S)-4-carboxy-4-(19-carboxynonadecanoylamino)butanoyl]-[Glu14,Arg17,Pro21,Pro27,Arg35]-h-amylin (peptide)
peptide: K([γGlu-C20 diacid])CNTATCATQRLAEFLRHSSPNFGAIPSSTNVGSRTY-NH2
modifications: disulfide 2-7; N-terminus assumed
SMILES: CC[C@H](C)[C@H](NC(=O)[C@H](C)NC(=O)CNC(=O)[C@H](Cc1ccccc1)NC(=O)[C@H](CC(N)=O)NC(=O)[C@@H]1CCCN1C(=O)[C@H](CO)NC(=O)[C@H](CO)NC(=O)[C@H](Cc1c[nH]cn1)NC(=O)[C@H](CCCNC(=N)N)NC(=O)[C@H](CC(C)C)NC(=O)[C@H](Cc1ccccc1)NC(=O)[C@H](CCC(=O)O)NC(=O)[C@H](C)NC(=O)[C@H](CC(C)C)NC(=O)[C@H](CCCNC(=N)N)NC(=O)[C@H](CCC(N)=O)NC(=O)[C@@H](NC(=O)[C@H](C)NC(=O)[C@@H]1CSSC[C@H](NC(=O)[C@@H](N)CCCCNC(=O)CC[C@H](NC(=O)CCCCCCCCCCCCCCCCCCC(=O)O)C(=O)O)C(=O)N[C@@H](CC(N)=O)C(=O)N[C@@H]([C@@H](C)O)C(=O)N[C@@H](C)C(=O)N[C@@H]([C@@H](C)O)C(=O)N1)[C@@H](C)O)C(=O)N1CCC[C@H]1C(=O)N[C@@H](CO)C(=O)N[C@@H](CO)C(=O)N[C@H](C(=O)N[C@@H](CC(N)=O)C(=O)N[C@H](C(=O)NCC(=O)N[C@@H](CO)C(=O)N[C@@H](CCCNC(=N)N)C(=O)N[C@H](C(=O)N[C@@H](Cc1ccc(O)cc1)C(N)=O)[C@@H](C)O)C(C)C)[C@@H](C)O
notes: also called compound 51

target: T1, human calcitonin receptor; assay: SPA competition with 125I-calcitonin, membranes of BHK hCTR cells (Assay VII)
Method in brief: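 BHK hCTR membranes 35 ng/μL + SPA beads 0.05 mg/well; buffer 50 mM Hepes pH 7.4, 1 mM CaCl2, 5 mM MgCl₂, 0.1% OA, 0.02% Tween20. 120 min, 25° C., shaking. Scintillation count; IC50 by one-site binding competition.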

Row | IC50 [nM] | Binder
1 | 34.5 | B1
2 | 31.4 | B2
3 | 48.8 | B3
4 | 6.17 | B4
5 | 18 | B5
6 | 31.1 | B6
